Measured values: patent US20200054764A1, “MEDICAL USE OF ANTI-C MET ANTIBODY-CYTOTOXIC DRUG CONJUGATE” (priority 2016, published 2020)

Columns and labels:
[1] = test system: MKN45 cells expressing c-Met; experiment: Endocytosis of anti c-Met antibody in MKN45 cells (FACS); type: cell-based, human; conditions: MKN45, 10 μg/mL antibody
From the text: Antibodies of the invention bind to human c-Met, and have very good in vitro activity and good activity in inhibiting tumor activity in vivo. […] In order to detect whether the antibodies would be internalized into the cell along with human c-Met once bound to human c-Met, human gastric cancer cell line MKN45 (JCRB, Cat No.: JCRB0254) expressing c-Met was used for evaluation.
MKN45 cells were resuspended to 10,000,000 cells/mL in RPMI 1640 medium (GIBCO, Cat No.: 11835-030), which contains 10% (v/v) FBS (GIBCO, Cat No.: 10099-141) and penicillin/streptomycin (GIBCO, Cat No.: 15070-063). 2 mL resuspended MKN45 cells were added to a 96-well microtiter plate with 250,000 cells/well, and 10 μg/mL of c-Met antibody was added to the corresponding wells and the final volume was 100 μL. The plate was incubated at 4° C. for 1 hour. FACS buffer (phosphate buffer solution including 2.5% fetal bovine serum; Hyclone, Cat: SH30256.01B) was added and the plate was centrifuged at 4° C., 1300 rpm for 4 minutes. The supernatant was discarded and this procedure was repeated three times. 100 μL secondary antibody solution (Fluorescence labeled goat anti mouse secondary antibodies at 1:200 dilution, Biolegend, Cat #405307; Fluorescence labeled anti-human secondary antibody at 1:30 dilution, Biolegend, Cat #409304) was added into each well. The plate was incubated at 4° C. for 1 hour. FACS buffer was added and the plate was centrifuged at 4° C., 1300 rpm for 4 minutes. The supernatant was discarded and this procedure was repeated three times. Complete cell culture medium (RPMI 1640 medium with 10% FBS) was added and was incubated at 37° C. in 5% CO2 for 0, 0.5, 1, 2, 4 hours. 5 μL 7-AAD (Biolegend, Cat:420403) was added to 100 μL FACS buffer which was added to each well, and the plate was incubated at 4° C. for 30 minutes. FACS buffer was added and the plate was centrifuged at 4° C., 1300 rpm for 4 minutes. The supernatant was discarded and this procedure was repeated three times. 200 μL Stripping buffer (0.05 M glycine, pH 3.0; 0.1 M NaCl, mixed at 1:1 (v/v)) was added to each well. The cells were resuspended and were incubated for 7 minutes at room temperature. The cells were centrifuged at room temperature at 1300 rpm for 4 minutes, and the supernatant was discarded. 200 μL neutralizing wash buffer (0.15M trihydroxymethyl aminomethane, pH 7.4) was added to each well, the cells were resuspended and centrifuged at room temperature at 1300 rpm for 4 minutes, and the supernatant was discarded. 200 μL FACS buffer was added and the cells were resuspended. The prepared samples were detected by flow cytometry (BD FACS Calibur).
Endocytosis of c-Met antibody %=(intensity of fluorescence at each time point−mean intensity of fluorescence at time 0)/mean intensity of fluorescence at time 0.

MKN45 cells = experiment: FACS binding to cell line MKN45, which highly expresses c-Met; design: species or system human; conditions: flow cytometry, read-out: MKN45/FCAS Binding activity
Description: A FACS method was used to detect the binding activity of c-Met humanized antibodies with the cell line MKN45, which highly expresses c-Met.
MKN45 cells (JCRB, Cat No.: JCRB0254) were resuspended in RPMI1640 medium (GIBCO, Cat No.: 11835-030) which contains 10% (v/v) fetal calf serum (FBS GIBCO, Cat No.: 10099-141) and Penicillin/Streptomycin (GIBCO, Cat No.: 15070-063) to reach 10,000,000 cells/mL. 2 mL of resuspended MKN45 cells was added to 96-well microtiter plate (Corning, Cat No.: 3799) at 150,000 cells/well, and 8 concentrations of c-Met antibody (5-fold gradient diluted, starting from 20 μg/mL) were added to the corresponding wells, and the final volume was 100 μL. The plate was incubated for 1 hour at 4° C. FACS buffer (PBS comprising 2.5% (v/v) FBS (Hyclone, Cat: SH30256.01B)) was added. The plate was centrifuged under 4° C. at 1300 rmp for 4 minutes, and the supernatant was discarded. This procedure was repeated three times. 100 μL of secondary antibodies (Fluorescence labeled goat-anti-mouse secondary antibodies with 1:200 dilution, Biolegend, Cat No. 405307; Fluorescence labeled anti-human secondary antibody with 1:30 dilution, Biolegend, Cat No. 409304) were added to each well, and the plate was incubated for 1 hour at 4° C. […] FACS buffer was added to resuspend the cells, and the prepared samples were detected by flow cytometry (BD FACS Array).

B1: Ab-9 (antibody)
heavy: QVTLKESGPVLVKPTETLTLTCTVSGFSLPNYGVHWVRQPPGKALEWLAVIWSGGSTNYAAAFVSRLRISKDTSKSQVVFTMNNMDPVDTATYYCARNHDNPYNYAMDYWGQGTTVTVSSASTKGPSVFPLAPCSRSTSESTAALGCLVKDYFPEPVTVSWNSGALTSGVHTFPAVLQSSGLYSLSSVVTVPSSNFGTQTYTCNVDHKPSNTKVDKTVERKCCVECPPCPAPPVAGPSVFLFPPKPKDTLMISRTPEVTCVVVDVSHEDPEVQFNWYVDGVEVHNAKTKPREEQFNSTFRVVSVLTVVHQDWLNGKEYKCKVSNKGLPAPIEKTISKTKGQPREPQVYTLPPSREEMTKNQVSLTCLVKGFYPSDIAVEWESNGQPENNYKTTPPMLDSDGSFFLYSKLTVDKSRWQQGNVFSCSVMHEALHNHYTQKSLSLSPGK
light: DIVLTQSPASLAVSPGQRATITCRANKSVSTSTYNYLHWYQQKPGQPPKLLIYLASNLASGVPARFSGSGSGTDFTLTINPVEANDTANYYCQHSRDLPPTFGQGTKLEIKRTVAAPSVFIFPPSDEQLKSGTASVVCLLNNFYPREAKVQWKVDNALQSGNSQESVTEQDSKDSTYSLSSTLTLSKADYEKHKVYACEVTHQGLSSPVTKSFNRGEC
[1]; 0 h
  endocytosis %: 0%
[1]; 0.5 h
  endocytosis %: 26%
[1]; 1 h
  endocytosis %: 32%
[1]; 2 h
  endocytosis %: 32%
[1]; 4 h
  endocytosis %: 31%
MKN45 cells
  EC50: 1.6 nM
